Data on one molecule can be found in article PMC6342957, “Structural consequence of the most frequently recurring cancer-associated substitution in DNA polymerase ε”.

This data set concerns the target T1, Pol2CORE P301R (DNA polymerase epsilon catalytic core) (Saccharomyces cerevisiae, UniProt P21951 1-1187, P301R).
T1 sequence: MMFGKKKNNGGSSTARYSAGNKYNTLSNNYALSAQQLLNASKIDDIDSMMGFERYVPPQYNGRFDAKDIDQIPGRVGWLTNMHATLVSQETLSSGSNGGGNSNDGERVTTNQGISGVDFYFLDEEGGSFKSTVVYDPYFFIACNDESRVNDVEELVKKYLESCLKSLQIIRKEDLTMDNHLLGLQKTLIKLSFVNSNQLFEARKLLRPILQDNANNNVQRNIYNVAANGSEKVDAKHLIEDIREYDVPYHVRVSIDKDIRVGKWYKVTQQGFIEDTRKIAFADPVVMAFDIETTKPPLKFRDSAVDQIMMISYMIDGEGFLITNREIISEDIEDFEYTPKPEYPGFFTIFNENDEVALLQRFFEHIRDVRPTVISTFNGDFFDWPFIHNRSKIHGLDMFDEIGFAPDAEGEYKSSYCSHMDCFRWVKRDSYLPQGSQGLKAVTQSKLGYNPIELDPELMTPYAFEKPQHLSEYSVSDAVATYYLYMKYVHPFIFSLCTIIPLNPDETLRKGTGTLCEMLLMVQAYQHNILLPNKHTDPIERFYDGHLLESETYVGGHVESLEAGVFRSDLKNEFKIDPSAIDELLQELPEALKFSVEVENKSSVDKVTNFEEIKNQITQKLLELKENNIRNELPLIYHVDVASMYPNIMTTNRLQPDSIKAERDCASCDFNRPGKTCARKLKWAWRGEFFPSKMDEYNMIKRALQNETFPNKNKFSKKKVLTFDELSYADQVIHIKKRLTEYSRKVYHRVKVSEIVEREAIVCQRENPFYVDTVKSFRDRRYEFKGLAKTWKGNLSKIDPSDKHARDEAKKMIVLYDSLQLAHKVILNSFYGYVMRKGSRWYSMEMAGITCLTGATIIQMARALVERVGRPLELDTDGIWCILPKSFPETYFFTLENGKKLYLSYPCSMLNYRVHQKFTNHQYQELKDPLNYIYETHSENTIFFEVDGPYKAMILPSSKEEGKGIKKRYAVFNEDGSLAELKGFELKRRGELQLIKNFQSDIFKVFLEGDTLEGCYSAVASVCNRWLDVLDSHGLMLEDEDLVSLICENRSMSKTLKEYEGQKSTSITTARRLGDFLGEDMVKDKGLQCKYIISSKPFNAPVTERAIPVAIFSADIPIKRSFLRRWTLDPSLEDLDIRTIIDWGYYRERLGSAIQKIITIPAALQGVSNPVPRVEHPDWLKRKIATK
Nature of the data set: X-ray crystallography; incoming dNTP; Ca2+ in exonuclease A-site; Crystallization conditions not in the material; protein stored in 25 mM Tris-Ac pH 7.5, 10% glycerol, 800 mM NaAc. The note with it: protein: recombinant; tags: 6xHis removed with PreScission protease; 5' overhang 5 nt on template (recessed primer 3' end).

B1: KP11ddC/KT16 primer-template (dsDNA)
DNA 1: TAACCGCGTTC
DNA 2: CTCTTGAACGCGGTTA
modifications: 3'-terminal dideoxy-C on primer
As for B1, the binding result is given as “binds”.
